In US8357523B2, “Beta-glucosidase variant enzymes and related polynucleotides” (Codexis, Inc., priority 2009, dated 2013):

B1: 200 (protein)
chain: STAIAQEGAAPAAILHPEKWPRPATQRLIDPAVEKRVDALLKQLSVEEKVGQVIQGDIGTITPEDLRKYPLGSILAGGDSGPNGDDRAPPKEWLDLADAFYRVSLEKRPGHTPIPVLFGIDAVHGHGNIGSATIFPHNIALGMTRDPELLRRIGEVTAEEMAATGIDWTFAPALSVVRDDRWGRTYEGFSEDPEIVASYSAAIVEGVQGKFGSKDFMAPGRIVASAKHFLADGGTDQGRDQGDARISEDELIRIHNAGYPPAIDAGVLTVMASFSSWQGIKHHGHKQLLTDVLKGQMGFNGFIVGDWNAHDQVPGCTKFNCPTSLIAGLDMYMAADSWKQLYENTLAQVKDGTIPMARLDDAVRRILRVKVLAGLFEKPAPKDRPGLPGLETLGSPEHRAVGREAVRKSLVLLKNDKGTLPLSPKARVLVAGDGADNIGKQSGGWTISWQGTGNRNDEFPGATSILGGIRDAVADAGGSVEFDVAGQYKTKPDVAIVVFGEEPYAEFQGDVETLEYQPDQKQDLALLKKLKDQGIPVVAVFLSGRPMWVNPELNASDAFVAAWLPGTEGGGVADVLFTDKAGKVQHDFAGKLSYSWPRTAAQTTVNRGDADYNPLFAYGYGLTYKDKSKVGTLPEESGVPAEARQNAGIYFRAGALRLPGRFL
B2: 205 (protein)
chain: STAIAQEGAAPAAILHPEKWPRPATQRLIDPAVEKRVDALLKQLSVEEKVGQVIQGDIGTITPEDLRKYPLGSILAGGDSGPNGDDRAPPKEWLDLADAFYRVSLEKRPGHTPIPVLFGIDAVHGHGNIGSATIFPHNIALGMTRDPELLRRIGEVTAEEMAATGIDWTFAPALSVVRDDRWGRTYEGFSEDPEIVASYSAAIVEGVQGKFGSKDFMAPGRIVASAKHFLADGGTDQGRDQGDARISEDELIRIHNAGYPPAIDAGVLTVMASFSSWQGIKHHGHKQLLTDVLKGQMGFNGFIVGDWNAHDQVPGCTKFNCPTSLIAGLDMYMAADSWKQLYENTLAQVKDGTIPMARLDDAVRRILRVKVLAGLFEKPAPKDRPGLPGLETLGSPEHRAVGREAVRKSLVLLKNDKGTLPLSPKARVLVAGDGADNIGKQSGGWTISWQGTGNRNDEFPGATSILGGIRDAVADAGGAVEFDVAGQYKTKPDVAIVVFGEEPYAEFQGDVETLEYQPDQKQDLALLKKLKDQGIPVVAVFLSGRPMWVNPELNASDAFVAAWLPGTEGGGVADVLFTDKAGKVQHDFAGKLSYSWPRTAAQTTVNRGDADYNPLFAYGYGLTYKDKSKVGTLPEESGVPAEARQNAGIYFRAGALRLPGRFL
B3: 204 (protein)
chain: STAIAQEGAAPAAILHPEKWPRPATRRLIDPAVEKRVDALLKQLSVEEKVGQVIQGDIGTITPEDLRKYPLGSILAGGDSGPNGDDRAPPKEWLDLADAFYRVSLEKRPGHTPIPVLFGIDAVHGHGNIGSATIFPHNIALGMTRDPELLRRIGEVTAEEMAATGIDWTFAPALSVVRDDRWGRTYEGFSEDPEIVASYSAAIVEGVQGKFGSKDFMAPGRIVASAKHFLADGGTDQGRDQGDARISEDELIRIHNAGYPPAIDAGVLTVMASFSSWQGIKHHGHKQLLTDVLKGQMGFNGFIVGDWNAHDQVPGCTKFNCPTSLIAGLDMYMAADSWKQLYENTLAQVKDGTIPMARLDDAVRRILRVKVLAGLFEKPAPKDRPGLPGLETLGSPEHRAVGREAVRKSLVLLKNDKGTLPLSPKARVLVAGDGADNIGKQSGGWTISWQGTGNRNDEFPGATSILGGIRDAVADAGGSVEFDVAGQYKTKPDVAIVVFGEEPYAEFQGDVETLEYQPDQKQDLALLKKLKDQGIPVVAVFLSGRPMWVNPELNASDAFVAAWLPGTEGGGVADVLFTDKAGKVQHDFAGKLSYSWPRTAAQTPVNRGDADYNPLFAYGYGLTYKDKSKVGTLPEESGVPAEARQNAGIYFRAGALRLPGRFL
B4: 206 (protein)
chain: STAIAQEGAAPAAILHPEKWPRPATQRLIDPAVEKRVDALLKQLSVEEKVGQVIQGDIGTITPEDLRKYPLGSILAGGDSGPNGDDRAPPKEWLDLADAFYRVSLEKRPGHTPIPVLFGIDAVHGHGNIGSATIFPHNIALGMTRDPELLRRIGEVTAEEMAATGIDWTFAPALSVVRDDRWGRTYEGFSEDPEIVASYSAAIVEGVQGKFGPKDFMAPGRIVASAKHFLADGGTDQGRDQGDARISEDELIRIHNAGYPPAIDAGVLTVMASFSSWQGIKHHGHKQLLTDVLKGQMGFNGFIVGDWNAHDQVPGCTKFNCPTSLIAGLDMYMAADSWKQLYENTLAQVKDGTIPMARLDDAVRRILRVKVLAGLFEKPAPKDRPGLPGLETLGSPEHRAVGREAVRKSLVLLKNDKGTLPLSPKARVLVAGDGADNIGKQSGGWTISWQGTGNRNDEFPGATSILGGIRDAVADAGGSVEFDVAGQYKTKPDVAIVVFGEEPYAEFQGDVETLEYQPDQKQDLALLKKLKDQGIPVVAVFLSGRPMWVNPELNASDAFVAAWLPGTEGGGVADVLFTDKAGKVQHDFAGKLSYSWPRTAAQTTVNRGDADYNPLFAYGYGLTYKDKSKVGTLPEESGVPAEARQNAGIYFRAGALRLPGRFL
B5: 83 (protein)
chain: STAIAQEGAAPAAILHPEKWPRPATQRLIDPAVEKRVDALLKQLSVEEKVGQVIQGDIGTITPEDLRKYPLGSILAGGNSGPNGDDRAPPKEWLDLADAFYRVSLEKRPGHTPIPVLFGIDAVHGHGNIGSATIFPHNIALGATRDPELLRRIGEVTAVEMAATGIDWTFAPALSVVRDDRWGRTYEGFSEDPEIVAAYSAAIVEGVQGKFGSKDFMAPGRAVACAKHFLADGGTDQGRDQGDARISEDELIRIHNAGYPPAIDAGVLTVMASFSSWQGIKHHGHKQLLTDVLKGQMGFNGFIVGDWNAHDQVPGCTKFNCPTSLIAGLDMYMAADSWKQLYENTLAQVKDGTIPMARLDDAVRRILRVKVLAGLFEKPAPKDRPGLPGLETLGSPEHRAVGREAVRKSLVLLKNDKGTLPLSPKARVLVAGDGADNIGKQSGGWTISWQGTGNRNDEFPGATSILGGIRDAVADAGGSVEFDVAGQYKTKPDVAIVVFGEEPYAEFQGDVETLEYQPDQKQDLTLLKKLKDQGIPVVAVFLSGRPMWVNPELNASDAFVAAWLPGTEGGGVADVLFTDKAGKVQHDFAGKLSYSWPRTAAQTTVNRGDADYNPLFAYGYGLTYKDKSKVGTLPEESGVPAEARQNAGIYFRAGALRLPGRFL
B6: 203 (protein)
chain: STAIAQEGAAPAAILHPEKWPRPATQRLIDPAVEKRVDALLKQLSVEEKVGQVIQGDIGTITPEDLRKYPLGSILAGGDSGPNGDDRAPPKEWLDLADAFYRVSLEKRPGHTPIPVLFGIDAVHGHGNIGSATIFPHNIALGMTRDPELLRRIGEVTAEEMAATGIDWTFAPALSVVRDDRWGRTYEGFSEDPEIVASYSAAIVEGVQGKFGSKDFMAPGRIVASAKHFLADGGTDQGRDQGDARISEDELIRIHNAGYPPAIDAGVLTVMASFSSWQGIKHHGHKQLLTDVLKGQMGFNGFIVGDWNAHDQVPGCTKFNCPTSLIAGLDMYMAADSWKQLYENTLAQVKDGTIPMARLDDAVRRILRVKVLAGLFEKPAPKDRPGLPGLETLGSPEHRAVGREAVRKSLVLLKNDKGTLPLSPKARVLVAGDGADNIGKQSGGWTISWQGTGNRNDEFPGATSILGGIRDAVADAGGSVEFDVPGQYKTKPDVAIVVFGEEPYAEFQGDVETLEYQPDQKQDLALLKKLKDQGIPVVAVFLSGRPMWVNPELNASDAFVAAWLPGTEGGGVADVLFTDKAGKVQHDFAGKLSYSWPRTAAQTTVNRGDADYNPLFAYGYGLTYKDKSKVGTLPEESGVPAEARQNAGIYFRAGALRLPGRFL
B7: 201 (protein)
chain: STAIAQEGAAPAAILHPEKWPRPATQRLIDPAVEKRVDALLKQLSVEEKVGQVIQGDIGTITPEDLRKYPLGSILAGGDSGPNGDDRAPPKEWLDLADAFYRVSLEKRPGHTPIPVLFGIDAVHGHGNIGSATIFPHNIALGMTRDPELLRRIGEVTAEEMAATGIDWTFAPALSVVRDDRWGRTYEGFSEDPEIVASYSAAIVEGVQGKFGSKDFMAPGRIVASAKHFLADGGTDQGRDQGDARISEDELIRIHNAGYPPAIDAGVLTVMASFSSWQGIKHHGHKQLLTDVLKGQMGFNGFIVGDWNAHDQVPGCTKFNCPTSLIAGLDMYMAADSWKQLYENTLAQVKDGTIPMARLDDAVRRILRVKVLAGLFEKPAPKDRPGLPGLETLGSPEHRAVGREAVRKSLVLLKNDKGTLPLSPKARVLVAGDGADNIGKQSGGWTISWQGTGNRNDEFPGATSILGGIRDAVADAGGSVEFDVAGQYKTKPDVAIVVFGEEPYAEFQGDVETLEYQPDQKQDLALLKKLKDQGIPVVVVFLSGRPMWVNPELNASDAFVAAWLPGTEGGGVADVLFTDKAGKVQHDFAGKLSYSWPRTAAQTTVNRGDADYNPLFAYGYGLTYKDKSKVGTLPEESGVPAEARQNAGIYFRAGALRLPGRFL
B8: 202 (protein)
chain: STAIAQEGAAPAAILHPEKWPRPATQRLIDPAVEKRVDALLKQLSVEEKVGQVIQGDIGTITPEDLRKYPLGSILAGGDSGPNGDDRAPPKEWLDLADAFYRVSLEKRPGHTPIPVLFGIDAVHGHGNIGSATIFPHNIALGMTRDPELLRRIGEVTAEEMAATGIDWTFAPALSVVRDDRWGRTYEGFSEDPEIVASYSAAIVEGVQGKFGSKDFMAPGRIVASAKHFLADGGTDQGRDQGDARISEDELIRIHNAGYPPAIDAGVLTVMASFSSWQGIKHHGHKQLLTDVLKGQMGFNGFIVGDWNAHDQVPGCTKFNCPTSLIAGLDMYMAADSWKQLYENTLAQVKDGTIPMARLDDAVRRILRVKVLAGLFEKPAPKDRPGLPGLETLGSPEHRAVGREAVRKSLVLLKNDKGTLPLSPKARVLVAGDGADNIGKQSGGWTISWQGTGNRNDEFPGATSILGGIRDAVADAGGSVEFDVAGQYKTKPDVAIVVFGEEPYAEFQGDVETLEYQPDQKQDLALLKKLKDQGIPVVAVFLSGRPMWVNPELNASDAFVAAWLPGTEGPGVADVLFTDKAGKVQHDFAGKLSYSWPRTAAQTTVNRGDADYNPLFAYGYGLTYKDKSKVGTLPEESGVPAEARQNAGIYFRAGALRLPGRFL

Experiment: High throughput cellobiose assay: fold improvement in cellobiase activity of CelA variants over a control enzyme (Tables 2A-2D, 3, 5, 6, 7)
Assay type: biochemical
Settings: 3.3 g/l cellobiose, 55° C. and pH 6.0

Molecule | Fold improvement over Control Variant No. 5 from Table 2A
B1 | +++ (+++ = 6 to 13 fold improvement over control Variant No. 2)
B2 | ++ (++ = 1.1 to 6 fold improvement over control Variant No. 2)
B3 | ++ (++ = 1.1 to 6 fold improvement over control Variant No. 2)
B4 | ++ (++ = 1.1 to 6 fold improvement over control Variant No. 2)
B5 | +++ (+++ = 6 to 13 fold improvement over control Variant No. 2)
B6 | ++ (++ = 1.1 to 6 fold improvement over control Variant No. 2)
B7 | ++ (++ = 1.1 to 6 fold improvement over control Variant No. 2)
B8 | ++ (++ = 1.1 to 6 fold improvement over control Variant No. 2)
